Tests used:
Assay in all cases: FACS, 293T cells expressing CXCR4 variants
[1] = molecular target: CXCR2/CXCR4 chimera 2444b (human) (UniProt P61073)
[2] = molecular target: CXCR2/CXCR4 chimera 2442 (human) (UniProt P61073)
ΔN25-CXCR4 (human) = ΔN25-CXCR4 (human) (UniProt P61073)
ΔN31-CXCR4 (human) = ΔN31-CXCR4 (human) (UniProt P61073)
[3] = molecular target: CXCR2/CXCR4 chimera 4442 (human) (UniProt P61073)
[4] = molecular target: human CXCR4 (wild type) (human) (UniProt P61073)

binding to cells expressing the variant (+%) [1]: 70.1%
binding to cells expressing the variant (+%) [2]: 85.8%
binding to cells expressing the variant (+%) (ΔN25-CXCR4 (human)): 69.2%
binding to cells expressing the variant (+%) (ΔN31-CXCR4 (human)): 55.4%
binding to cells expressing the variant (+%) [3]: 103%
binding to cells expressing the variant (+%) [4]: 100%
Substance: murine monoclonal antibody 12G5
